This passage reports initiation probability of processive DDB runs within the first 360 nm from the growing microtubule plus end, without EB1 (average 0.05 per 360 nm segment anywhere on the microtubule) and percent of processive DDB particles with Lis1 bound results from paper PMC5686545.

Experiment [1] has as its target microtubules of porcine brain tubulin (pig (endogenous in brain)) (UniProt P02550).
Experiment [2] addresses GFP-tagged human cytoplasmic dynein complex (human) (UniProt Q14204). Nature of the experiment: TIRF microscopy of purified proteins on static GMPCPP microtubules (single-particle colocalisation); 5 nM GFP-dynein, 10 nM pig dynactin, 200 nM BicD2-N, 50 nM mCherry-Lis1; immobilised GMPCPP microtubules; assay buffer AB.
The target is the same in experiment [3]. Kind of experiment: TIRF microscopy of purified proteins on static GMPCPP microtubules (single-particle colocalisation); 5 nM GFP-dynein, 10 nM pig dynactin, 200 nM BicD2-N, 50 nM mCherry-Lis1; immobilised GMPCPP microtubules; HEPES-based buffer (60 mM HEPES pH 7.4, 50 mM K-acetate, 2 mM MgCl2, 10% glycerol, 2 mM ATP).

Turning to “native dynactin complex from pig brain (from UniProt A0A287B8J2 1-1281; A0A5G2QD80 1-405; F2Z5G5 1-349)”, the initiation probability of processive DDB runs within the first 360 nm from the growing microtubule plus end, without EB1 (average 0.05 per 360 nm segment anywhere on the microtubule) in experiment [1] was 0.33.

B1: mCherry-Lis1 (human Lissencephaly-1) (natural protein)
chain: MVLSQRQRDELNRAIADYLRSNGYEEAYSVFKKEAELDVNEELDKKYAGLLEKKWTSVIRLQKKVMELESKLNEAKEEFTSGGPLGQKRDPKEWIPRPPEKYALSGHRSPVTRVIFHPVFSVMVSASEDATIKVWDYETGDFERTLKGHTDSVQDISFDHSGKLLASCSADMTIKLWDFQGFECIRTMHGHDHNVSSVAIMPNGDHIVSASRDKTIKMWEVQTGYCVKTFTGHREWVRMVRPNQDGTLIASCSNDQTVRVWVVATKECKAELREHEHVVECISWAPESSYSSISEATGSETKKSGKPGPFLLSGSRDKTIKMWDVSTGMCLMTLVGHDNWVRGVLFHSGGKFILSCADDKTLRVWDYKNKRCMKTLNAHEHFVTSLDFHKTAPYVVTGSVDQTVKVWECR
Turning to B1, the percent of processive DDB particles with Lis1 bound was found to be 9% in experiment [2] and 16% in experiment [3].
